Results taken from patent US20050049299A1, “Selective inhibitors of stat-3 activation and uses thereof” (priority 2003, published 2005).

Legend:
MM.1S and MM.1R cells = experiment: TNF- and LT-induced proliferation of MM.1S and MM.1R cells (thymidine incorporation); type: cell-based, human; conditions: serum starved 12 h, 48 hours serum-free
Method: (§1) The cell proliferation assay was performed as described below. Results are shown as mean (±s.d. indicated by error bar) of percent [^3H] thymidine incorporation of triplicate cultures compared to the untreated control. […] Cells were treated with IL-6 for 10 minutes as a positive control for STAT3 phosphorylation. Thirty micrograms of whole cell extract was were resolved on 7.5% SDS-PAGE, electrotransferred to a nitrocellulose membrane, and probed for phosphorylated-STAT3 (upper panel), stripped, and reprobed for STAT3 (lower panel).
The antiproliferative effects of curcumin were also monitored by the thymidine incorporation method. For this, 5000 cells in 100 μl medium were cultured in triplicate in 96-well plates in the presence or absence of curcumin for 24 h. Six hours before the completion of experiment, cells were pulse treated with 0.5 μCi [^3H]thymidine, and the uptake of [^3H]thymidine was monitored using a Matrix-9600 β-counter (Packard Instruments, Downers Grove, Ill.).
(§2) MM.1S and MM.1R cells were serum starved for 12 h and then treated with TNF or lymphotoxin in the serum free medium.

STAT3 phosphorylation = STAT3 phosphorylation in MM.1S and MM.1R cells after TNF, LT or IL-6 (Western blot); type: cell-based, human; conditions: 1 nM TNF or LT
Method: as §1
For detection of STAT proteins, whole-cell extracts were prepared by lysing the curcumin-treated cells in lysis buffer (20 mM Tris, pH 7.4, 250 mM NaCl, 2 mM EDTA, pH 8.0, 0.1% Triton-X100, 0.01 mg/ml aprotinin, 0.005 mg/ml leupeptin, 0.4 mM PMSF, and 4 mM NaVO4). Lysates were then spun at 14000 rpm for 10 min to remove insoluble material, and resolved on a 7.5% gel. After electrophoresis, the proteins were electrotransferred to a nitrocellulose membrane, blocked with 5% nonfat milk, and probed with anti-STAT antibodies (1:1000) overnight at 4° C. The blot was washed, exposed to HRP-conjugated secondary antibodies for 1 h, and finally examined by chemiluminescence (ECL, Amersham Pharmacia Biotech. Arlington Heights, Ill.).
as §2

B1: lymphotoxin: bacteria-derived recombinant human LT provided by Genentech (protein, UniProt P01374 35-205, looked up)
Lymphotoxin-alpha: LPGVGLTPSAAQTARQHPKMHLAHSTLKPAAHLIGDPSKQNSLLWRANTDRAFLQDGFSLSNNSLLVPTSGIYFVYSQVVFSGKAYSPKATSSPLYLAHEVQLFSSQYPFHVPLLSSQKMVYPGLQEPWLHSMYHGAAFQLTQGDQLSTHTDGIPHLVLSPSTVFFGAFAL
With B1 the “proliferative effects in MM.1S and MM.1R cells” value (MM.1S and MM.1R cells) was “more pronounced in dex-resistant MM.1R cells than in dex-sensitive MM.1S cells” and the “induction of STAT3 phosphorylation” value (STAT3 phosphorylation) was “neither TNF nor lymphotoxin induced STAT3 phosphorylation”.
